Measurements reported in the supplement of paper PMC12764529.
± gives the half width of the 95% confidence interval.

Key:
[1] = folding stability dG unfold (combined trypsin and chymotrypsin); higher = more stable
Method in brief: (§1)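 Unfolding free energy was derived, per protease or combined, by relating Bayesian-fitted K50 values from sequencing counts to a sequence-predicted unfolded-state K50 and a shared folded-state K50. The underlying digests exposed cysteine-free mini-proteins under 80 residues, in a PA-tagged cDNA display construct, to trypsin and chymotrypsin at 11 threefold-diluted concentrations and to a no-protease condition. A filter kept only designs with AlphaFold2 dimer inter-PAE above 15.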

[2] = folding stability dG unfold from chymotrypsin proteolysis; higher = more stable
Method in brief: as §1

[3] = folding stability dG unfold from trypsin proteolysis; higher = more stable
Method in brief: as §1

Sequence | folding stability dG unfold [1] [kcal/mol] | folding stability dG unfold [2] [kcal/mol] | folding stability dG unfold [3] [kcal/mol]
SAGGSAGGSAGGGVTLPTGDIVVPVEYTTTVPVLTYNPTLGVSYFFTLTVTTSSTVYVGLSAGGSAGGSAGG [r7_374_JUSTAS] | 3.37 ± 0.082 | 3.868 ± 0.026 | 2.71 ± 0.057
PNMKMEWIQIPPGDLNDPVKIEAPLPPGTQIMIWVHDNGNGEWRPIFTVNNDEITIKNLPDADHVWVWVIKS [r1_224_TrROS] | 2.47 ± 0.28 | 2.71 ± 0.1 | 1.83 ± 0.13
SAGGSAGGSAGGMVRITVEVDGKTYELVVEGMSLEEIEELLKKPNIKKAKVEPLSEEELKSAGGSAGGSAGG [r7_502_TrROS_Hall] | 2.32 ± 0.098 | 2.71 ± 0.09 | 1.24 ± 0.04
SAGGAMPVELVETLEEIPGKGIVLRKFRDPLSDKWFLATVPVETLPNGEKKYLIELNIDGSGMTLELGSAGG [r13_993_JUSTAS] | 0.173 ± 0.17 | 0.11 ± 0.22 | 0.0151 ± 0.099
SERLKLKITIKNANGETYEVEIEFDLETNELTIKVKPVPALPPVTEKRVVKKDGKLVEETRTVLLSEEDLSA [r9_587_TrROS_Hall] | 1.74 ± 0.38 | 1.83 ± 0.1 | 1.02 ± 0.16
SAGGSAGGSAAEASVVTFPGDLTAEVTKLPDGSYAVTVTFPENPGATATLTRTPDSVTVTPSAGGSAGGSAG [r3_170_JUSTAS] | -0.342 ± 0.17 | -1.1 ± 0.56 | 0.0476 ± 0.058
SAGGSAGGLGWGSFKLPFEFWDPANGMPMRNSINIMVIVIPPPPPKVEVEEDPDNGKKKVTYDDSAGGSAGG [r6_926_TrROS] | 2.95 ± 0.46 | 3.31 ± 0.084 | 2.67 ± 0.1
SMIKPGEKIKKIKLKLENGEEVEATLVKNEDGSLVLFIKVDGEVYVFTFNPDGEIKIEKVSKEEAEKLLKSA [r9_1144_TrROS_Hall] | 3.4 ± 0.15 | 3.79 ± 0.046 | 2.05 ± 0.097
SETYKVTVLAEVRIYSRSPDGTWKPIGVFPVEATVEYPAEYREEAERKAVEKVEEEVRKFAESHGVVVEASA [r9_356_TrMRF] | 1.91 ± 0.16 | 2.31 ± 0.13 | 1.57 ± 0.043
SAGGSAGGSAGDVEVRFEVKFTPDGTLIIKAEIRLPDIPDVTIRVEAVILPNGEILVKVSSAGGSAGGSAGG [r11_483_TrMRF] | 3.68 ± 0.16 | 3.06 ± 0.15 | 3.68 ± 0.11
SAPWVYHVRIEYKGPDGEPVAEHTIMVKTPEALKEQIRKHFGLSPAQIKNIEVEPVIPAEEMNEMQEKGSAG [r14_852_TrROS] | 0.882 ± 0.094 | 1.27 ± 0.12 | 0.204 ± 0.13
SAGGMTILFEADSLEEARQAVEDLLRDLGIPAIAERITVEERTFRLPAGPGTRRFVLVTIDLRLEPPSAGGS [r16_587_TrMRF] | 2.62 ± 0.034 | 2.522 ± 0.021 | 2.68 ± 0.031
SAGGSKVTLEVNEDGTVTLTVTRPDGKKVTLTITKNEDGTYTIRDEETGKTITVPAGMSIEELLKASAGGSA [r2_338_TrROS_Hall] | 5.09 ± 0.1 | 5.17 ± 0.14 | 3.69 ± 0.12
SAEVEVLPFEFELPNGLRVEVHLVRLPDGTVVAPVLLVEYDPVTGEPRLSRAVAVFDPSTGKVTVLPLDSAG [r14_324_TrMRF] | 2.97 ± 0.042 | 2.993 ± 0.017 | 3.01 ± 0.047
SAGGMVEITATVGSPDPSLTDEEIAERILKELGLDPEIVEVTFLERRLVPDAAGRVRVVVEMKFLVPEKSAG [r5_528_JUSTAS] | 4.73 ± 0.19 | 4.26 ± 0.16 | 4.77 ± 0.21
SAGGSAGGSAGGSMSGVFSTETVFLEKTLPDGSRVEALTTIETYLPLPPLPPFKFPSAVSAGGSAGGSAGGS [r4_325_JUSTAS] | 0.437 ± 0.26 | 0.415 ± 0.13 | 0.13 ± 0.1
SAGGSAGGSAGSMTVTLTITDPRNSATTTYTVPSSNYEEFLKANPEIEKNGWTVTVDTNGSAGGSAGGSAGG [r17_176_JUSTAS] | 1.05 ± 0.13 | 0.903 ± 0.15 | 1.15 ± 0.044
SAEPTLAEATNDPATGTATANFPLENLPPDYRVLAVNLETGEVTEFPPDGEVTITAPEGPVLVKLFWKGSAG [r14_134_TrMRF] | 0.213 ± 0.15 | -0.512 ± 0.55 | 0.608 ± 0.13
SAGGMVTSTVSVDPSVPKTTTTETFSDGTRVVTTTTELPSGLTVTTTTVTVPPDGSTTATSTTTTIAPSAGG [r13_230_JUSTAS] | 1.27 ± 0.11 | 0.958 ± 0.044 | 1.62 ± 0.064
SAGGSAGGSAGGMKKGQKFKPVKKVKLRFKVKVKVKVGGKEYEFEAEVELEVEFYVLEDSAGGSAGGSAGGS [r10_758_TrROS_Hall] | 3.68 ± 0.25 | 4.41 ± 0.17 | 2.55 ± 0.2
SARVYRLPDGRLVRFEPVPPRPPVIVIPVDFRISPDDPETRRRLAEEIRRRLLEELGLPEDTPIFVDPSSAG [r14_453_TrMRF] | 4.16 ± 0.22 | 4.45 ± 0.14 | 4.11 ± 0.18
